Experimental data from patent US6100445.
Each block holds one molecule with its values, some of them ahead of it.

Tests used:
[1] = target: mouse precursor form of IL-1β (preIL-1β) (mouse) (UniProt P10749)
[2] = target: T1, murine interleukin-1β converting enzyme (ICE) (mouse)
T1 sequence: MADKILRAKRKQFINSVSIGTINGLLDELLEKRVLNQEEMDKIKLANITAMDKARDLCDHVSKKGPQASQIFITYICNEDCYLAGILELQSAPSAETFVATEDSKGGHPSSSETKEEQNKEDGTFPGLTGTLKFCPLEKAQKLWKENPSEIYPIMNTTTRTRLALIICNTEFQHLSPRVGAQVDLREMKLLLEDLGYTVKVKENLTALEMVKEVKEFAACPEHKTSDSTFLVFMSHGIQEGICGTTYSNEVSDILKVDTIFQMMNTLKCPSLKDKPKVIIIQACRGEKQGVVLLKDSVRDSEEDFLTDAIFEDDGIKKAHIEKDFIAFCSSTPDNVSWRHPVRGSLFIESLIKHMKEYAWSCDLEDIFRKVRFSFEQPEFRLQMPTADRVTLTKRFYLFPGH

IL-1β (pg/ml) released into the medium by macrophages stimulated with LPS and ATP, ELISA [1]: 4430 pg/mL
Molecule: murine interleukin-1β converting enzyme (ICE)

percent inhibition of matIL-1β release from LPS-treated ICE +/+ macrophages [2]: 78%
B1: tetrapeptide aldehyde Ac-YVAD-CHO (peptide)
peptide: Ac-YVAD-aldehyde
